From US20030091584A1 (AstraZeneca / MedImmune, published 2003)
Residue numbers refer to the chain shown, from its start. “And” between values parts separate entries of the source, which are not always exact repeats. Equal values may be shown once.

T1: RSV F glycoprotein (NUF4) (respiratory syncytial virus)
T1 chain 1: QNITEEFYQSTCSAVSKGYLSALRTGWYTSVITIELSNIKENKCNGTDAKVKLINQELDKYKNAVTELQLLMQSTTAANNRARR
T1 chain 2: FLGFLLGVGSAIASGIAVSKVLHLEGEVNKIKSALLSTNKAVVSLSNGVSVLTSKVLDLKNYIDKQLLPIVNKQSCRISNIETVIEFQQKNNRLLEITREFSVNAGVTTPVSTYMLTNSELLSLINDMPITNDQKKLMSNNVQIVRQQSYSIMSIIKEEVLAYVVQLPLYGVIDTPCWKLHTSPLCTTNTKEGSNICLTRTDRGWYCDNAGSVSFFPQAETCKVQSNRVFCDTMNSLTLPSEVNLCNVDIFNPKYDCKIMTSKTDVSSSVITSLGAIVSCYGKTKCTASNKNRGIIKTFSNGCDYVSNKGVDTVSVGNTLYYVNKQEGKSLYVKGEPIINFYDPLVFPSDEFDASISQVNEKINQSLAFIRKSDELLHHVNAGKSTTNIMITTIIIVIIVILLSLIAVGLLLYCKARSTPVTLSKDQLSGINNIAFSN

B1: A1e9 (monoclonal antibody) (antibody, V domains shown)
VH: QVTLRESGPALVKPTQTLTLTCTFSGFSLSTPGMSVGWIRQPPGKALEWLADIWWDGKKHYNPSLKDRLTISKDTSKNQVVLKVTNMDPADTATYYCARDMIFNWYFDVWGQGTTVTVSS
VL: DIQMTQSPSTLSASVGDRVTITCSLSSRVGYMHWYQQKPGKAPKLLIYDTFKLSSGVPSRFSGSGSGTEFTLTISSLQPDDFATYYCFQGSGYPFTFGGGTKVEIK
notes: mAb with framework and constant regions of SYNAGIS; also called Ale9
B2: M3H9 (Fab fragment) (Fab, V domains shown)
VH: B1 VH with P32A, G57D, H60D, D67S, Q112A
VL: B1 VL with L25A, R28S, F51Y, L53Q, S54T, V103L
B3: P12f2 (monoclonal antibody) (antibody, V domains shown)
VH: B1 VH with G57D, W105F, Q112A
VL: B1 VL with K52Y
notes: mAb with framework and constant regions of SYNAGIS; also called Pf12
B4: 6H8 (Fab fragment) (Fab, V domains shown)
VH: B1 VH with P32A, G57D, H60D, D67S, F103T, W105F, Q112A
VL: B1 VL with L25A, R28S, S54T, V103L
B5: P11d4 (Fab fragment) (Fab, V domains shown)
VH: B1 VH
VL: B1 VL with L25P, F51M, K52R, S54A
notes: Fab
B6: A13a11 (Fab fragment) (Fab, V domains shown)
VH: B1 VH with P32A, G57D, Q112A
VL: B1 VL with L25A, R28S, F51Y, K52R, L53H, S54A, V103L
notes: Fab
B7: DG (Fab fragment) (Fab, V domains shown)
VH: B1 VH with P32A, G57D, H60D, D67S, F103T, W105F, Q112A
VL: B1 VL with L25A, R28S, S54A, V103L
B8: P11d4 (monoclonal antibody) (antibody, V domains shown)
VH: B1 VH
VL: B1 VL with L25P, F51M, K52R, S54A
notes: mAb with framework and constant regions of SYNAGIS
B9: Y10H6 (Fab fragment) (Fab, V domains shown)
VH: B1 VH with P32A, G57D, H60D, D67S, Q112A
VL: B1 VL with L25A, R28S, F51R, K52Y, V103L
B10: P12f4 (Fab fragment) (Fab, V domains shown)
VH: B1 VH with W105F
VL: B1 VL with F51R, K52G, S54P
notes: Fab
B11: A4B4 (Fab fragment) (Fab, V domains shown)
VH: B1 VH with P32A, G57D, W105F
VL: B1 VL with L25A, K52F, S54D, V103L
B12: H3-3F4 (Fab fragment) (Fab, V domains shown)
VH: B1 VH with P32A, G57D, H60D, D67S, Q112A
VL: B1 VL with L25A, R28S, S54A, V103L
B13: A12a6 (Fab fragment) (Fab, V domains shown)
VH: B1 VH with P32A, H60D, W105F
VL: B1 VL with L25A
notes: Fab
B14: P12f2 (Fab fragment) (Fab, V domains shown)
VH: B1 VH with G57D, W105F, Q112A
VL: B1 VL with K52Y
notes: Fab
B15: P12f4 (monoclonal antibody) (antibody, V domains shown)
VH: B1 VH with W105F
VL: B1 VL with F51R, K52G, S54P
notes: as for B8
B16: A1h5 (Fab fragment) (Fab, V domains shown)
VH: B1 VH
VL: B1 VL with R28S, K52F, L53H, S54R, V103L
B17: A12a6 (monoclonal antibody) (antibody, V domains shown)
VH: B1 VH with P32A, H60D, W105F
VL: B1 VL with L25A
notes: as for B8
B18: 1X-493L1FR (Fab fragment) (Fab, V domains shown)
VH: B1 VH with P32S, G57D, H60D, D67S, D100S, F103T, Q112A
VL: B1 VL with L25A, R28S, F51S, S54A, V103L
B19: A8c7 (Fab fragment) (Fab, V domains shown)
VH: B1 VH with P32A, G57D, H60S
VL: B1 VL with L25A, F51R, K52Y, L53Q, V103L
B20: A1e9 (Fab fragment) (Fab, V domains shown)
VH: B1 VH
VL: B1 VL
notes: Fab; also called *Ale9
B21: A8c7 (monoclonal antibody) (antibody, V domains shown)
VH: B1 VH with P32A, G57D, H60S
VL: B1 VL with L25A, F51R, K52Y, L53Q, V103L
notes: as for B8
B22: A17d4 (Fab fragment) (Fab, V domains shown)
VH: B1 VH with P32A, H60S, W105F
VL: B1 VL with S24L, L25P, F51M, K52Y, L53Q, S54A, G90F, V103L

Columns and labels:
[1] = target: T1, RSV F glycoprotein (NUF4); experiment: BIAcore, mAb vs NUF4 (2:1)
[2] = target: T2, F protein of wild type RSV A/Long (respiratory syncytial virus strain …, UniProt P12568 26-574); experiment: cell-based or functional assay
[3] = target: T1, RSV F glycoprotein (NUF4); experiment: BIAcore, mAb vs NUF4 (1:1)
[4] = target: RSV F protein (immobilized on the BIAcore sensor chip) (respiratory syncytial virus); experiment: BIAcore, immobilized F protein;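 note: fab fragments as analytes binding F protein coupled to the chip via EDC/NHS chemistry, with blank surface signal subtracted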
[5] = target: T2, F protein of wild type RSV A/Long; experiment: cell-based or functional assay; remark: listed apart in the source

Binder | Kd [1] [nM] | koff [1] [s⁻¹] | kon [1] [M⁻¹ s⁻¹] | number in parentheses after KD (fold against SYNAGIS = 1) [1] [fold] | Fold Difference (Control IC50) [2] [fold] | Fold Difference (Curve IC50) [2] [fold] | Mean IC50 (Control), RSV microneutralization [2] [µg/mL] | Mean IC50 (Curve), RSV microneutralization [2] [µg/mL] | Kd [3] [nM] | koff [3] [s⁻¹] | kon [3] [M⁻¹ s⁻¹] | number in parentheses after KD (fold against SYNAGIS = 1) [3] [fold] | koff [4] | kon [4] | EC50 (nM), in vitro microneutralization of RSV Long [5] [nM]
B1 | 4.22 | 0.00139 | 329000 | 74 | 8 | 7 | 0.0645 | 0.0625 | 0.69 | 0.000584 | 843000 | 13 |  |  | 
B2 |  |  |  |  |  |  |  |  |  |  |  |  | 0.000338 s⁻¹ | 605000 M⁻¹ s⁻¹ | 
B3 | 0.84 | 0.000236 | 282000 | 371 | 24 | 20 | 0.0223 | 0.0231 | 0.33 | 0.000178 | 541000 | 26 |  |  | 
B4 |  |  |  |  |  |  |  |  |  |  |  |  | 0.000178 s⁻¹ and 0.000473 s⁻¹ | 314000 M⁻¹ s⁻¹ and 444000 M⁻¹ s⁻¹ | 
B5 |  |  |  |  |  |  | > 1 | > 1 |  |  |  |  | 0.000717 s⁻¹ | 570000 M⁻¹ s⁻¹ and 572000 M⁻¹ s⁻¹ | > 20
B6 |  |  |  |  | 5 | 4 | 0.102 | 0.12 |  |  |  |  | 0.00025 s⁻¹ | 735000 M⁻¹ s⁻¹ | 2.04
B7 |  |  |  |  |  |  |  |  |  |  |  |  | 0.000167 s⁻¹ and 0.000444 s⁻¹ |  | 
B8 | 8.55 | 0.00313 | 366000 | 36 | 19 | 21 | 0.0289 | 0.0217 | 0.85 | 0.000766 | 904000 | 10 |  |  | 
B9 |  |  |  |  |  |  |  |  |  |  |  |  | 0.000462 s⁻¹ | 757000 M⁻¹ s⁻¹ | 
B10 |  |  |  |  | 15 | 10 | 0.0351 | 0.0464 |  |  |  |  | 0.000299 s⁻¹ | 527000 M⁻¹ s⁻¹ | 0.7
B11 |  |  |  |  | 13 | 11 | 0.0411 | 0.0414 |  |  |  |  |  |  | 
B12 |  |  |  |  |  |  |  |  |  |  |  |  | 0.000445 s⁻¹ and 0.000402 s⁻¹ |  | 
B13 |  |  |  |  | 17 | 16 | 0.031 | 0.0287 |  |  |  |  | 0.00023 s⁻¹ | 743000 M⁻¹ s⁻¹ | 0.62
B14 |  |  |  |  | 16 | 11 | 0.0326 | 0.0407 |  |  |  |  | 0.000282 s⁻¹ | 663000 M⁻¹ s⁻¹ | 0.65
B15 | 2.33 | 0.000636 | 273000 | 134 | 23 | 19 | 0.0235 | 0.0242 | 0.24 | 0.000229 | 943000 | 36 |  |  | 
B16 |  |  |  |  | 3 | 2 | 0.176 | 0.194 |  |  |  |  |  |  | 
B17 | 1.87 | 0.000408 | 218000 | 167 | 15 | 13 | 0.0354 | 0.0357 | 0.73 | 0.000291 | 400000 | 12 |  |  | 
B18 |  |  |  |  |  |  |  |  |  |  |  |  | 0.00065 s⁻¹ | 185000 M⁻¹ s⁻¹ | 
B19 |  |  |  |  | 34 | 3 | 0.157 | 0.177 |  |  |  |  |  |  | 
B20 |  |  |  |  | 4 | 3 | 0.125 | 0.157 |  |  |  |  | 0.000453 s⁻¹ | 790000 M⁻¹ s⁻¹ | 2.5
B21 | 2.65 | 0.00114 | 430000 | 118 | 14 | 13 | 0.0383 | 0.0337 | 0.65 | 0.000535 | 825000 | 13 |  |  | 
B22 |  |  |  |  | 31 | 25 | 0.0171 | 0.0179 |  |  |  |  |  |  | 
